Measurements published in PMC12431793, “Identification of antibodies induced by immunization with the syphilis vaccine candidate Tp0751” (Vaccine, 2025).
Where a chain is given by its changes, count along the chain named.

B1: 2091E9 (antibody, V domains shown)
VH: QSVEESGGRLVTPGGSLTLTCTVSGFSLSSYVMTWVRQAPGKGLEWIGYIYIDGYTTWYASWVKGRFTISRTSTTVDLKMTSLSTEDTATYFCVRVGATIDFMMRRLDLWGQGTLVTVSS
VL: DVVMTQTPSSVSAAVRGTVTIKCQASPSVYSDYLSWYQQKPGQRPKLLMYGTSTLASGVPSRFKGSGSGTQFTLTISDVQCDDAATYYCAGGFNSGADSFAFGGGTEVVVQ
notes: made as rabbit IgG; source: produced and purified as rabbit IgG by Sino Biological
B2: 2101B3 (antibody, V domains shown)
VH: QSLEESGGDLVKPGASLTLTCTASGLDFSGYYYICWVRQAPGKGLEWIGCIWPGDGDTDYASWAKGRFTVSKTSSTTVDLKVTTLTAADTATYFCGRLLGSGSAYFNLWGPGTLVTVSS
VL: AVVMTQTPSSVSEAVGGTVTIKCQASQTIGEALAWYQQKPGQPPKLLIYKASTVASGVPWRFKGSGCGSEYTLTISGVQCEDAATYYCQQGYSLTIIDNLFGGGTEVVVE
notes: as for B1
B3: 2131F4 (antibody, V domains shown)
VH: QSVEESGGDLVKPEGSLTLTCTASEFSFNTNHYVCWVRQAPGKGLEWLACVAGGGSGATYYATWAKGRFTLSRTSSSTVTLEMTSLAPADTATYFCARVDSTDFNFDLWGPGTLVTVSS
VL: DPVMTQTPSPVSAAVGGTVSISCQSSQIVYNDNWLSWYQQKPGQPPKRLIYGTSNSASGVPSRFKGSGCGTQFTLTISDVQCDDAATYYCQGGYLVGDVYVFGGGTEVVVK
notes: as for B1
B4: 2101A3 (antibody, V domains shown)
VH: QSLEESGGGLVKPGGTLTLTCKASGFDLSSYYYMCWVRQAPGKGLEWIACTYISSGSTWYASWAKGRFTVSKPSSTTVTLQMTSLTAADTATYFCAREVGSPEYGYYLDLWGPGTLVTVSS
VL: DVVMTQTPASVEAAVGGTVTIKCQASQSISSWLSWYQQKPGQPPKLLIYQASKLASGVPSRFKGSGCGTEYTLTISDLECADGATYYCQTYYGSGSSNYHAFGGGTEVVVK
notes: as for B1
B5: 2101D12 (antibody, V domains shown)
VH: QQLEESGGGLVKPGGTLTLTCKASGWDFSSSYWISWVRQAPGKGLEWIAYINTDSLKTYYATWAKGRFTVSKTSSTTVTLQVTSLTAADTATYFCADGAFWGPGTLVTVSS
VL: DVVMTQTPASVSAAVGGTVTINCQASQSINSWLSWYQQKPGQPPKRLINDASTLESGVPSRFKGSGCGTQFTLTISDLECADAATYYCQSHYFSRSIDYYNAFGGGTEVVVK
notes: as for B1
B6: 2092D3 (antibody, V domains shown)
VH: QSVEESGGRLVTPGTPLTLTCTVSGFSLSSYTMSWVRQAPGKGLEWIGVISGSDTLSYATWAKGRFTISKTSTTVDLKITSPTTADTATYFCARDGGYSDYDHAPNIWGPGTLVTVSL
VL: DVVMTQTPASVEAAVGGTVTIKCQASQSIYNYLAWYQQKPGQPPKLLIYQASKVASGVPSRFKGRGSGTQFTLTISDLECADAATYYCQWSFYDSNYIGAFGGGTEVVVK
notes: as for B1
B7: 2092E3 (antibody, V domains shown)
VH: B6 VH with F26I, S27D, T32A, S51G, G52D, S53M, T55I, L56V, R94G
VL: DVVMTQTPASVEAAVGGTVTIKCHASESIYDYLAWYQQKPGQPPKLLISKASTLASGVPSGFKASGSGTLFTLTISDLECADAATYYCQWSFYDHYYVGAFGGGTEVVVK
notes: as for B1

Assays:
Details in all cases: both partners purified
[1] = target: T1, Tp0751_(24–237) (Treponema pallidum subsp. pallidum, …, UniProt O83732); assay: BLI; OctetRed, room temperature, shaking at 500 RPM; 40 μg/mL antibody loaded on Protein A capture biosensors; 0.1, 0.7 or 6 μM Tp0751_(24–237) in solution, 5 min association, 5 min dissociation in kinetics buffer
T1 construct: The biotinylated, streptavidin-tetramerised form was used only to stain and sort B cells, not in BLI or ELISA; also called soluble Tp0751_(24–237); mature Tp0751 protein

[2] = target: T2, Tp0751_(115–237) (Treponema pallidum subsp. pallidum, …, UniProt O83732); assay: ELISA; epitope mapping: 33pM of antibody on plate-coated Tp0751_(24–237), Tp0751_(99–237) or Tp0751_(115–237)
T2 construct: Tp0751 of Treponema pallidum, amino acids 115-237 (N-terminal truncation; lipocalin structural fold); also called Tp0751 lipocalin structural/functional domain

[3] = target: T3, Tp0751_(99–237) (Treponema pallidum subsp. pallidum, …, UniProt O83732); assay: as above
T3 construct: Tp0751 of Treponema pallidum, amino acids 99-237 (N-terminal truncation; alpha helix cap 99-114 and lipocalin domain 115-237)

[4] = target: T1, Tp0751_(24–237); assay: as above
[5] = target: T1, Tp0751_(24–237); assay: ELISA; titration: plates coated with 15 pmol/well Tp0751_(24–237) in 1xTBS pH 7.4; 0.2 pM-33 nM rabbit antibodies serially diluted in 4 % skim milk in TBS, 1 h at room temperature; anti-rabbit IgG-HRP

T3 sequence (O83732 99-237): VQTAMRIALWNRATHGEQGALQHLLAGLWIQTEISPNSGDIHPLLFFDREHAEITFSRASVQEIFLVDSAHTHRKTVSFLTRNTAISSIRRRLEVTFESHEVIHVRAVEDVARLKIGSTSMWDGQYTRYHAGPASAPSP
T1 sequence (O83732 24-237): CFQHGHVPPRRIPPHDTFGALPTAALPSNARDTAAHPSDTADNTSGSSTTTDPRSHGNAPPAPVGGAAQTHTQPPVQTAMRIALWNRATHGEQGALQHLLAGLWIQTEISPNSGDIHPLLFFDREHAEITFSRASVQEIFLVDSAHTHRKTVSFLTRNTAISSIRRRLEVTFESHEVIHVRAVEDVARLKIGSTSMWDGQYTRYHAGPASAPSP
T2 sequence (O83732 115-237): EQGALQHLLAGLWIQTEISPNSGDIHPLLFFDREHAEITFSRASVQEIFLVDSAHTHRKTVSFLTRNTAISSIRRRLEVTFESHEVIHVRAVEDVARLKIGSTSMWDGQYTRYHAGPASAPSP

Binder	binding result [1]	binding result [2]	binding result [3]	binding result [4]	binding result [5]
B1	binds	binds	–	–	–
B2	–	binds	binds	binds	–
B3	–	no binding (tested: 33pM of antibody)	no binding (tested: 33pM of antibody)	binds	–
B4	–	no binding (tested: 33pM of antibody)	binds	–	binds
B5	–	binds	binds	–	binds
B6	–	no binding (tested: 33pM of antibody)	binds	–	binds
B7	–	no binding (tested: 33pM of antibody)	binds	binds	–
